In the supplement of paper PMC9170038:

Test system: MS2 coat protein
Assay: apparent KD of MS2 coat protein; designed switch direction (-1 OFF switch, 1 ON switch): -1; higher = weaker reporter binding
Method in brief: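 An oligonucleotide input, 200 uM small-molecule ligand, or no input was present during titration of SNAP-549-labelled MS2 coat protein, which was doubled from 0.7 or 1.5 nM to 3 µM. Designed RNA switches had been transcribed on Illumina chips by stalled E. coli RNA polymerase. Apparent KD per design is the median over clusters of curves fitted to normalised cluster fluorescence.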

[1] = Eterna round: R95, input ligand: FMN 200 uM
[2] = Eterna round: R95, input ligand: microRNA oligo, concentration not stated
[3] = Eterna round: R95, input ligand: none
[4] = input ligand: microRNA oligo, concentration not stated

Sequence	apparent KD of MS2 coat protein [1]	apparent KD of MS2 coat protein [2]	apparent KD of MS2 coat protein [3]	apparent KD of MS2 coat protein (input ligand: FMN 200 uM)	apparent KD of MS2 coat protein (input ligand: none)	apparent KD of MS2 coat protein [4]
UUUUAACAUGAGGAUCACCCAUGUGAGGAUAUCGAAUUUUAUAUUAAUAUUAAUAAAACGAGAAGGCACAUUUU [JMF 8] (puzzle: Exclusion 1)	60.8 nM	49.6 nM	49.6 nM	–	–	–
UUUUAACAUGAGGAUCACCCAUGUGAGGAUAUCGAUAUUUAUAUUAAUAUUAAUAAAACGAGAAGGCACAUUUU [JMF 7] (puzzle: Exclusion 1)	–	65.2 nM	–	–	–	–
UUUUAACAUGAGGAUCACCCAUGUGAGGAUAUCGAUUUUUAUAUUAAUAUUAAUAAAACGAGAAGGCACAUUUU [JMF 11] (puzzle: Exclusion 1)	–	123 nM	–	–	–	–
UUUUAACAUGAGGAUCACCCAUGUGAGGAUAUCGUUUUUUAUAUUAAUAUUAAUAAAACGAGAAGGCACAUUUU [JMF 10] (puzzle: Exclusion 1)	–	121 nM	–	–	–	–
UUUUACAAGCCAGAUCCUCACAUGAGGAUCACCCAUGUGCUCGUCUGUUUUUGUACUAUCACGUUUGUGAUAGUGUU [Level Boss var2-09] (puzzle: Sensor v3, turn-off variant 1)	189 nM	14.6 nM	189 nM	–	–	–
UUUUACAGAGGAUAUGCGAAUAAAUAAAACUUUUUUUUUUAACAUGAGGAUCACCCAUGUAGAAGGCUGAUUUU [Ex2 #25] (Eterna round: R97, puzzle: Exclusion 2)	–	–	–	40 nM	48.4 nM	–
UUUUAGUAAGGAUAUGGUUAGAUCUACUUCGGUAGAUCUAACCAGAAGGUACAUGAGGAUCACCCAUGUAGAUA [Mod of Brourd 19 - Jieux - Exclusion 4] (Eterna round: R97, puzzle: Exclusion 4)	–	–	–	25.2 nM	25.3 nM	–
UUUUGGCAAGCGAGAUCCCACAUGAGGAUCACCCAUGUUGACCAUGGUUUCCAUGGUCAUUUUGCUCGUCUUGUGUG [jl TITIN mod 1] (Eterna round: R97, puzzle: Sensor, turn-off variant 1)	–	–	–	31.3 nM	31.8 nM	–
UUUUGUUUUUUAUUUUUUAACAUGAGGAUCACCCAUGUAACGAGCAGAUCUUCAUGCAAGCUUUUUGCUCGUCUUAU [Sensor v3 - Turn-off variant 1 - 42] (puzzle: Sensor v3, turn-off variant 1)	42.2 nM	16.1 nM	60.6 nM	–	–	–
UUUUUACAUGAGGAUCACCCAUGUCAGGAUAUCAUUAUAUUUUAUUAUUUUAUUUAUAUGAGAAGGGACUAUUA [My solution] (Eterna round: R96, puzzle: Exclusion 1)	–	–	–	127 nM	105 nM	79.2 nM
UUUUUACAUGAGGAUCACCCAUGUCAGGAUAUCAUUAUAUUUUAUUAUUUUAUUUAUAUGAGAAGGGACUAUUA [My solution] (puzzle: Exclusion 1)	–	93.8 nM	–	–	–	–
UUUUUACAUGAGGAUCACCCAUGUGAGGAUAUGAGGGUUAGCUUAAAUGGGCUGACUUUCAGAAGGCACAUGAA [JR_Ex1_Sub059] (Eterna round: R97, puzzle: Exclusion 1)	–	–	–	280 nM	128 nM	–
UUUUUAUAUGAAGGAUAUACUUAACAUGAGGAUCACCCAUGUGGUGUUGUGAGUGAGUGAGUUUAGUAGAAGGUCAAGUAUUUC [JMF's solution 43] (Eterna round: R96, puzzle: Exclusion NG 2)	–	–	–	752 nM	731 nM	329 nM
UUUUUAUAUGAAGGAUAUACUUAACAUGAGGAUCACCCAUGUGGUGUUGUGAGUGAGUGAGUUUAGUAGAAGGUCAUUUCUUUU [JMF's solution 78] (Eterna round: R96, puzzle: Exclusion NG 2)	–	–	–	440 nM	462 nM	411 nM
UUUUUCAGGCCAGAUCCUCACAUGAGGAUCACCCAUGUGCUCGUCUGUUUUCGCUCUUUCUUUUUUUUGGUUGUGCU [Level Boss var2-18] (puzzle: Sensor v3, turn-off variant 1)	174 nM	31.2 nM	259 nM	–	–	–
